Laboratory results: patent publication US9938510B2, “Photobacterium sp. alpha-2-6-sialyltransferase variants” (The Regents of the University of California, priority 2014, dated 2018)

B1: Psp26ST(15-501)-His6: recombinant Photobacterium sp. JH-ISH-224 α2-6-sialyltransferase, residues 15-501, C-terminal His6, wild-type; SEQ ID NO: 23 (protein)
chain: CNNSEENTQSIIKNDINKTIIDEEYVNLEPINQSNISFTKHSWVQTCGTQQLLTEQNKESISLSVVAPRLDDDEKYCFDFNGVSNKGEKYITKVTLNVVAPSLEVYVDHASLPTLQQLMDIIKSEEENPTAQRYIAWGRIVPTDEQMKELNITSFALINNHTPADLVQEIVKQAQTKHRLNVKLSSNTAHSFDNLVPILKELNSFNNVTVTNIDLYDDGSAEYVNLYNWRDTLNKTDNLKIGKDYLEDVINGINEDTSNTGTSSVYNWQKLYPANYHFLRKDYLTLEPSLHELRDYIGDSLKQMQWDGFKKFNSKQQELFLSIVNFDKQKLQNEYNSSNLPNFVFTGTTVWAGNHEREYYAKQQINVINNAINESSPHYLGNSYDLFFKGHPGGGIINTLIMQNYPSMVDIPSKISFEVLMMTDMLPDAVAGIASSLYFTIPAEKIKFIVFTSTETITDRETALRSPLVQVMIKLGIVKEENVLFWA
modifications: C-terminal His6; Synthetic Psp26ST(15-501) WILD TYPE
B2: A366G: Photobacterium sp. JH-ISH-224 α2-6-sialyltransferase residues 15-501, A366G point mutation, C-terminal His6; SEQ ID NO: 2 (protein)
chain: CNNSEENTQSIIKNDINKTIIDEEYVNLEPINQSNISFTKHSWVQTCGTQQLLTEQNKESISLSVVAPRLDDDEKYCFDFNGVSNKGEKYITKVTLNVVAPSLEVYVDHASLPTLQQLMDIIKSEEENPTAQRYIAWGRIVPTDEQMKELNITSFALINNHTPADLVQEIVKQAQTKHRLNVKLSSNTAHSFDNLVPILKELNSFNNVTVTNIDLYDDGSAEYVNLYNWRDTLNKTDNLKIGKDYLEDVINGINEDTSNTGTSSVYNWQKLYPANYHFLRKDYLTLEPSLHELRDYIGDSLKQMQWDGFKKFNSKQQELFLSIVNFDKQKLQNEYNSSNLPNFVFTGTTVWGGNHEREYYAKQQINVINNAINESSPHYLGNSYDLFFKGHPGGGIINTLIMQNYPSMVDIPSKISFEVLMMTDMLPDAVAGIASSLYFTIPAEKIKFIVFTSTETITDRETALRSPLVQVMIKLGIVKEENVLFWA
modifications: C-terminal His6; Synthetic Psp26ST(15-501) A366G

Columns and labels:
[1] = Kinetics of CMP-Neu5Ac donor hydrolysis activity (capillary electrophoresis); assay type: biochemical
Method: Procedure for Kinetic Analysis of Donor Hydrolysis by His6-Pd2,6ST(16-497), Psp26ST(15-501)-His6 and its A235D and A366G Mutants
The kinetics study for the donor hydrolysis activity of His6-Pd2,6ST(16-497) was carried out at 37° C. for 20 min in Tris-HCl buffer (200 mM, pH 8.0). The kinetics study for the donor hydrolysis activities of Psp26ST(15-501)-His6 and its A235D mutant was carried out at 20° C. for 10 min in Tris-HCl buffer (200 mM, pH 8.0). All reactions were performed in duplicate in a total volume of 10 μL containing varied concentrations of CMP-Neu5Ac (10, 20, 40, 60, 80 and 100 mM) and the enzyme (6 μM). Reactions were stopped by adding 10 μL of ethanol and then centrifuged. The supernatants were analyzed by a P/ACETM capillary electrophoresis (CE) system equipped with a photodiode array (PDA) detector (Beckman Coulter, Inc., Fullerton, Calif.). CE conditions were as follows: 75 μm i.d. capillary, 25 KV/80μÅ, 5 s vacuum injections, monitored at 200 nm and 254 nm, the running buffer used was sodium tetraborate (25 mM, pH 9.4). Apparent kinetic parameters were obtained by fitting the experimental data (the average values of duplicate assay results) into the Michaelis-Menten equation using Grafit 5.0.

[2] = earlier reports (Ding 2011; Sun 2008); cited from earlier work
[3] = Sialylation assay with periodic addition of CMP-Neu5Ac; assay type: biochemical
Method: Two reactions were set up at 20° C. in MES buffer (200 mM, pH 5.0) containing Psp2,6ST(15-501)-His6 (6.0 μM), CMP-Neu5Ac (1 mM), and GalNAcα2AA (1 mM) in a total volume of 50 μL. One of the reactions was used as a control and was incubated for 4 h. The other was incubated for 1 h, 2 equivalents of CMP-Neu5Ac was then added. The same dose was added every hour for up to 4 h reaction duration. Aliquots (2 μL each) were withdrawn and the reactions were stopped by adding 10 μL of cold ethanol followed by centrifugation. The samples were diluted and kept on ice until aliquots of 8 μL were injected and analyzed by a Shimadzu LC-6AD system equipped with a membrane on-line degasser, a temperature control unit, and a fluorescence detector (Shimadzu RF-10AXL). A reverse-phase Premier C18 column (250×4.6 mm i.e., 5 μm particle size, Shimadzu) protected with a C18 guard column cartridge was used. The mobile phase was 25% acetonitrile in water. The 2-aminobenzoic acid (2AA)-labeled fluorescent acceptor and the product formed were detected with excitation at 315 nm and emission at 400 nm.

[4] = Apparent sialyltransferase kinetics, GalNAcαThr as acceptor; assay type: biochemical
Method: (§1) Reactions were carried out in duplicate at 20° C. for 20 minutes in a total volume of 10 μL in a proper buffer at the optimal pH according to the pH profile of the wild-type enzyme (see, Ding, 2011, supra). When LacβMU was used as an acceptor, the conditions were: Tris-HCl buffer (200 mM, pH 8.0), enzyme (0.3 μM), varied concentrations of LacβMU (0.1, 0.25, 0.4, 1.0, 2.0, 4.0, and 6.0 mM) with a fixed concentration of CMP-Neu5Ac (1.0 mM) or varied concentrations of CMP-Neu5Ac (0.1, 0.25, 0.4, 1.0, 2.0, 4.0, and 6.0 mM) with a fixed concentration of LacβMU (1.0 mM). When GalNAcα2AA was used as an acceptor, the conditions were: NaOAc-HOAc buffer (200 mM, pH 5.0), enzyme (6 μM), varied concentrations of GalNAcα2AA (0.5, 0.8, 1.0, 2.0, 4.0, 8.0, and 10.0 mM) and a fixed concentration of CMP-Neu5Ac (4.0 mM) or varied concentrations of CMP-Neu5Ac (0.5, 1.0, 2.0, 4.0, 5.0, 8.0, and 10.0 mM) with a fixed concentration of GalNAcα2AA (1.0 mM). When GalNAcαSer was used as an acceptor, the conditions were: Tris-HCl buffer (200 mM, pH 8.0), enzyme (0.6 μM), varied concentrations of GalNAcαSer (0.1, 0.25, 0.5, 1.0, 2.0, 4.0, 8.0, and 10.0 mM) and a fixed concentration of CMP-Neu5Ac (2.0 mM). […]

[5] = Apparent sialyltransferase kinetics, GalNAcαSer as acceptor; assay type: biochemical
Method: as §1

[6] = Apparent sialyltransferase kinetics, GalNAcα2AA as acceptor; assay type: biochemical
Method: as §1

Molecule	CMP-Neu5Ac hydrolysis efficiency relative to sialyltransferase activity (more efficient) ([1]; versus kcat/Km with GalNAcα2AA as acceptor)	CMP-Neu5Ac hydrolysis efficiency relative to sialyltransferase activity (lower) ([1]; versus kcat/Km with LacβMU as acceptor)	expression level of soluble protein [2]	sialylation yield ([3]; after an additional two equivalents of CMP-Neu5Ac, in 15 min)	sialylation yield ([3]; after the fourth dose (2 equivalents) of CMP-Neu5Ac)	sialylation yield ([3]; after the third dose (2 equivalents) of CMP-Neu5Ac)	sialylated product Neu5Acα2-6GalNAcα2AA formed ([3]; one equivalent of CMP-Neu5Ac, MES pH 5.0, 20° C., enzyme 6.0 μM, GalNAcα2AA 1 mM)	catalytic efficiency (kcat/Km) higher than the wild-type enzyme [4]	catalytic efficiency (kcat/Km) higher than the wild-type enzyme [5]	catalytic efficiency (kcat/Km) higher than the wild-type enzyme [6]
B1	about 14 fold	13 fold	25 mg/L	17%	33%	25%	7.3%	–	–	–
B2	–	–	–	–	–	–	–	2.1 fold	1.2 fold	1.3 fold
